Laboratory results published in paper PMC9482650, “Quantitative fragmentomics allow affinity mapping of interactomes” (Nature Communications, 2022).
Each block holds one binder with its values, some of them ahead of it.

Assays:
Assay in all cases: holdup assay
Parameters in all cases: key: below the threshold = too weak to quantify, mostly under pKd 3.1 to 4
APBA1_2, Q02410 = target: T1, APBA1_2, Q02410
T1 sequence (Q02410 742-832, limits assumed, looked up): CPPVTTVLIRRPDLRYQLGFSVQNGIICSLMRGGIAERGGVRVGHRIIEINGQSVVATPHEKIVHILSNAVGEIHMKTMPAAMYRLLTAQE

GRIP2_7, Q9C0E4 = target: GRIP2_7, Q9C0E4
GRIP2_7, Q9C0E4, sequence (Q9C0E4 934-1023): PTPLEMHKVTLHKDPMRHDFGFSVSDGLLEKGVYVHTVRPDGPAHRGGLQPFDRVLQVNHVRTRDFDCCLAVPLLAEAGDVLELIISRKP

ARHGAP21, Q5T5U3 = target: T2, ARHGAP21, Q5T5U3
T2 sequence (Q5T5U3 45-169, limits assumed, looked up): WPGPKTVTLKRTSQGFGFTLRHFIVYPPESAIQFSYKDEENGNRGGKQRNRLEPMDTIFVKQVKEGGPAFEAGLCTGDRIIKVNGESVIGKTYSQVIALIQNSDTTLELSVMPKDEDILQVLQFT

IL16_1, Q14005 = target: IL16_1, Q14005
IL16_1, Q14005, sequence (Q14005 210-306): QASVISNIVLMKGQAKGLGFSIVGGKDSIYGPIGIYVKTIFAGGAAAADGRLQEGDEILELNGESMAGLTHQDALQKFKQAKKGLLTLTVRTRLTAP

TIAM2, Q8IVF5 = target: T3, TIAM2, Q8IVF5
T3 sequence (Q8IVF5 885-986, limits assumed, looked up): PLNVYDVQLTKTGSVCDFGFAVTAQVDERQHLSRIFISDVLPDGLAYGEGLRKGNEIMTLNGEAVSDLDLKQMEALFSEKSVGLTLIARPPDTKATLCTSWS

SCRIB_2, Q14160 = target: SCRIB_2, Q14160
SCRIB_2, Q14160, sequence (Q14160 857-960): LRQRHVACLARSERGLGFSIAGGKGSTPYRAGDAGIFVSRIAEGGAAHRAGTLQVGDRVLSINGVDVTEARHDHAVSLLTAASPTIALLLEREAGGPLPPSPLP

DLG5_1, Q8TDM6 = target: DLG5_1, Q8TDM6
DLG5_1, Q8TDM6, sequence (Q8TDM6 617-713): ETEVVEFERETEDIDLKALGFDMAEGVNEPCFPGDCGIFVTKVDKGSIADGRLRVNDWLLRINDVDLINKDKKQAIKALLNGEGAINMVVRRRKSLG

SNTA1, Q13424 = target: T4, SNTA1, Q13424
T4 sequence (Q13424 82-180, limits assumed, looked up): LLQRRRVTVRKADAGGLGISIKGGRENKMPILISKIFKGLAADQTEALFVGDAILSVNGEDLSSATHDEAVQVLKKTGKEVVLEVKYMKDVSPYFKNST

NHERF3_4, Q5T2W1 = target: T5, NHERF3_4, Q5T2W1
T5 sequence (Q5T2W1 373-468, limits assumed, looked up): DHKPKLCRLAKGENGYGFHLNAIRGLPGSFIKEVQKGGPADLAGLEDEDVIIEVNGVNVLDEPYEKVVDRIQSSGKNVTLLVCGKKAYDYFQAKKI

LNX2_2, Q8N448 = target: T6, LNX2_2, Q8N448
T6 sequence (Q8N448 334-432, limits assumed, looked up): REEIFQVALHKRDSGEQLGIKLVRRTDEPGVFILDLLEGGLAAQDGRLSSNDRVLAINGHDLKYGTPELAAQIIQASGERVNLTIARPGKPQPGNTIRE

GORASP2, Q9H8Y8 = target: GORASP2, Q9H8Y8
TJP1_3, Q07157 = target: TJP1_3, Q07157
TJP1_3, Q07157, sequence (Q07157 416-512): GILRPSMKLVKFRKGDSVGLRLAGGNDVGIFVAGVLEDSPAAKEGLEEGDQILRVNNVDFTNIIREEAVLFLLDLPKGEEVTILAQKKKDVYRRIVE

SCRIB_1, Q14160 = target: SCRIB_1, Q14160
SCRIB_1, Q14160, sequence (Q14160 718-814): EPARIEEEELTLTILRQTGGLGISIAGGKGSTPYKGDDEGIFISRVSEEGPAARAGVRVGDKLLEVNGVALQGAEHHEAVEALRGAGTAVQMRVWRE

LDB3, O75112 = target: LDB3, O75112
LDB3, O75112, sequence (O75112 1-94): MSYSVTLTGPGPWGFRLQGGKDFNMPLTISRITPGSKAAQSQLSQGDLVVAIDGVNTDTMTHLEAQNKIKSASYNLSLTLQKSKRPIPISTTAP

RADIL, Q96JH8 = target: T7, RADIL, Q96JH8
T7 sequence (Q96JH8 971-1071, limits assumed, looked up): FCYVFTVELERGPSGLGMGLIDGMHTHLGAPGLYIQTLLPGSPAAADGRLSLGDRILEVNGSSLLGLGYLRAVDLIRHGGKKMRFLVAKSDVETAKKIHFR

DLG4_3, P78352 = target: DLG4_3, P78352
DLG4_3, P78352, sequence (P78352 306-403): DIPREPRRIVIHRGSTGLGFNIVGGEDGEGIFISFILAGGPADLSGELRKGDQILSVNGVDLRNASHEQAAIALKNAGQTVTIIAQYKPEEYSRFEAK

IL16_3, Q14005 = target: IL16_3, Q14005
IL16_3, Q14005, sequence (Q14005 1107-1207): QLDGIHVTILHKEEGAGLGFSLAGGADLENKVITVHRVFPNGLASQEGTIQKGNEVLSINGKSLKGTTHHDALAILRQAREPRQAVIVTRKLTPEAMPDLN

MAST2, Q6P0Q8 = target: MAST2, Q6P0Q8
MAST2, Q6P0Q8, sequence (Q6P0Q8 1099-1202): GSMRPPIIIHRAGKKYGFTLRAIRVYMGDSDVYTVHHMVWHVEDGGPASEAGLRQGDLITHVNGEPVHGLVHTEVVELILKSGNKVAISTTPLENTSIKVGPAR

DFNB31_1, Q9P202 = target: T8, DFNB31_1, Q9P202
T8 sequence (Q9P202 135-233, limits assumed, looked up): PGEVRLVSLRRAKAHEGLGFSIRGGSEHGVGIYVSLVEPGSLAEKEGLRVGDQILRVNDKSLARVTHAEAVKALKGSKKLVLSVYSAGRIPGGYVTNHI

GRIP2_5, Q9C0E4 = target: GRIP2_5, Q9C0E4
GRIP2_5, Q9C0E4, sequence (Q9C0E4 544-642): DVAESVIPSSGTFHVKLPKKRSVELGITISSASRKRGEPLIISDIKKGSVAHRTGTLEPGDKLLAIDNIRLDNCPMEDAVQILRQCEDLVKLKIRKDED

APBA2_1, Q99767 = target: T9, APBA2_1, Q99767
T9 sequence (Q99767 563-664, limits assumed, looked up): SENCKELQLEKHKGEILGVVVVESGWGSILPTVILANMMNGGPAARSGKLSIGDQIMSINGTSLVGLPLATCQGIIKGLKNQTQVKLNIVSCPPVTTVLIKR

DFNB31_3, Q9P202 = target: T10, DFNB31_3, Q9P202
T10 sequence (Q9P202 811-907, limits assumed, looked up): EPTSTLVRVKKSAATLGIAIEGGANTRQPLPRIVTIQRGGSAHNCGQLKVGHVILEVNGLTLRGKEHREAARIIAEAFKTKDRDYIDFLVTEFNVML

GRIP1_7, Q9Y3R0 = target: T11, GRIP1_7, Q9Y3R0
T11 sequence (Q9Y3R0 999-1096, limits assumed, looked up): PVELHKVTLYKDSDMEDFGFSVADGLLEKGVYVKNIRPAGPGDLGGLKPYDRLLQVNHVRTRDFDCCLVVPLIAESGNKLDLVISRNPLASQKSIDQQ

MPP2, Q14168 = target: T12, MPP2, Q14168
T12 sequence (Q14168 180-250, limits assumed, looked up): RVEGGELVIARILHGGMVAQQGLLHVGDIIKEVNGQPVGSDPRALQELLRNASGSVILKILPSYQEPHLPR

SNTG2, Q9NY99 = target: T13, SNTG2, Q9NY99
T13 sequence (Q9NY99 68-166, limits assumed, looked up): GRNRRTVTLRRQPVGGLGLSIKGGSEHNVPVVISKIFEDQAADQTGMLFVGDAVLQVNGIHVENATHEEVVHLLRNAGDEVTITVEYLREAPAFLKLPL

[1] = plain residues with an end cap or a label only (N-terminal biotin on a linker: ttds)
[2] = plain residues with an end cap or a label only (N-terminal biotin on a linker: ahx)

pKd (APBA1_2, Q02410; [1]): 3.89
pKd (GRIP2_7, Q9C0E4; [1]): below the threshold
pKd (ARHGAP21, Q5T5U3; [1]): below the threshold
pKd (IL16_1, Q14005; [1]): below the threshold
pKd (TIAM2, Q8IVF5; [1]): below the threshold
pKd (SCRIB_2, Q14160; [1]): 3.61
pKd (DLG5_1, Q8TDM6; [1]): below the threshold
pKd (SNTA1, Q13424; [1]): 3.73
pKd (NHERF3_4, Q5T2W1; [1]): 4.78
pKd (LNX2_2, Q8N448; [1]): below the threshold
pKd (GORASP2, Q9H8Y8; [1]): below the threshold
pKd (TJP1_3, Q07157; [1]): below the threshold
pKd (SCRIB_1, Q14160; [1]): 4.91
pKd (LDB3, O75112; [1]): below the threshold
pKd (RADIL, Q96JH8; [1]): below the threshold
pKd (DLG4_3, P78352; [1]): below the threshold
pKd (IL16_3, Q14005; [1]): below the threshold
pKd (MAST2, Q6P0Q8; [1]): below the threshold
pKd (DFNB31_1, Q9P202; [1]): 3.84
pKd (GRIP2_5, Q9C0E4; [1]): below the threshold
pKd (APBA2_1, Q99767; [1]): below the threshold
pKd (DFNB31_3, Q9P202; [1]): below the threshold
pKd (GRIP1_7, Q9Y3R0; [1]): 3.51
pKd (MPP2, Q14168; [1]): below the threshold
pKd (SNTG2, Q9NY99; [1]): 3.8
B1: ARHGAP17, Q68EM7 (peptide)
chain: IDNDTESTAL

pKd (APBA1_2, Q02410; [1]): 3.79
pKd (GRIP2_7, Q9C0E4; [1]): below the threshold
pKd (ARHGAP21, Q5T5U3; [1]): 3.68
pKd (IL16_1, Q14005; [1]): below the threshold
pKd (TIAM2, Q8IVF5; [1]): below the threshold
pKd (SCRIB_2, Q14160; [1]): 3.83
pKd (DLG5_1, Q8TDM6; [1]): below the threshold
pKd (SNTA1, Q13424; [1]): 4.06
pKd (NHERF3_4, Q5T2W1; [1]): below the threshold
pKd (LNX2_2, Q8N448; [1]): below the threshold
pKd (GORASP2, Q9H8Y8; [1]): below the threshold
pKd (TJP1_3, Q07157; [1]): below the threshold
pKd (SCRIB_1, Q14160; [1]): 4.57
pKd (LDB3, O75112; [1]): below the threshold
pKd (RADIL, Q96JH8; [1]): below the threshold
pKd (DLG4_3, P78352; [1]): below the threshold
pKd (IL16_3, Q14005; [1]): below the threshold
pKd (MAST2, Q6P0Q8; [1]): 5.91
pKd (DFNB31_1, Q9P202; [1]): 3.82
pKd (GRIP2_5, Q9C0E4; [1]): below the threshold
pKd (APBA2_1, Q99767; [1]): below the threshold
pKd (DFNB31_3, Q9P202; [1]): below the threshold
pKd (GRIP1_7, Q9Y3R0; [1]): below the threshold
pKd (MPP2, Q14168; [1]): below the threshold
pKd (SNTG2, Q9NY99; [1]): 4.39
B2: KCNT2, Q6UVM3 (peptide)
chain: GQDSREETQL

pKd (APBA1_2, Q02410; [1]): 4.03
pKd (GRIP2_7, Q9C0E4; [1]): below the threshold
pKd (ARHGAP21, Q5T5U3; [1]): 4.53
pKd (IL16_1, Q14005; [1]): 3.5
pKd (TIAM2, Q8IVF5; [1]): below the threshold
pKd (SCRIB_2, Q14160; [1]): 4.92
pKd (DLG5_1, Q8TDM6; [1]): below the threshold
pKd (SNTA1, Q13424; [1]): 4.75
pKd (NHERF3_4, Q5T2W1; [1]): 4.78
pKd (LNX2_2, Q8N448; [1]): below the threshold
pKd (GORASP2, Q9H8Y8; [1]): 3.82
pKd (TJP1_3, Q07157; [1]): below the threshold
pKd (SCRIB_1, Q14160; [1]): 6.07
pKd (LDB3, O75112; [1]): below the threshold
pKd (RADIL, Q96JH8; [1]): 3.56
pKd (DLG4_3, P78352; [1]): 3.85
pKd (IL16_3, Q14005; [1]): below the threshold
pKd (MAST2, Q6P0Q8; [1]): 5.92
pKd (DFNB31_1, Q9P202; [1]): 4.63
pKd (GRIP2_5, Q9C0E4; [1]): below the threshold
pKd (APBA2_1, Q99767; [1]): below the threshold
pKd (DFNB31_3, Q9P202; [1]): below the threshold
pKd (GRIP1_7, Q9Y3R0; [1]): below the threshold
pKd (MPP2, Q14168; [1]): below the threshold
pKd (SNTG2, Q9NY99; [1]): 4.97
B5: ABCC4, O15439 (peptide)
chain: STLTIFETAL

Continued, binder first:

B3: MYO18A, Q92614 (peptide)
chain: TEAKLTETNA
pKd (APBA1_2, Q02410; [2]): below the threshold
pKd (GRIP2_7, Q9C0E4; [2]): below the threshold
pKd (ARHGAP21, Q5T5U3; [2]): below the threshold
pKd (IL16_1, Q14005; [2]): below the threshold
pKd (TIAM2, Q8IVF5; [2]): below the threshold
pKd (SCRIB_2, Q14160; [2]): below the threshold
pKd (DLG5_1, Q8TDM6; [2]): below the threshold
pKd (SNTA1, Q13424; [2]): below the threshold
pKd (NHERF3_4, Q5T2W1; [2]): below the threshold
pKd (LNX2_2, Q8N448; [2]): below the threshold
pKd (GORASP2, Q9H8Y8; [2]): below the threshold
pKd (TJP1_3, Q07157; [2]): below the threshold
pKd (SCRIB_1, Q14160; [2]): below the threshold
pKd (LDB3, O75112; [2]): below the threshold
pKd (RADIL, Q96JH8; [2]): below the threshold
pKd (DLG4_3, P78352; [2]): below the threshold
pKd (IL16_3, Q14005; [2]): below the threshold
pKd (MAST2, Q6P0Q8; [2]): below the threshold
pKd (DFNB31_1, Q9P202; [2]): below the threshold
pKd (GRIP2_5, Q9C0E4; [2]): below the threshold
pKd (APBA2_1, Q99767; [2]): below the threshold
pKd (DFNB31_3, Q9P202; [2]): below the threshold
pKd (GRIP1_7, Q9Y3R0; [2]): below the threshold
pKd (MPP2, Q14168; [2]): below the threshold
pKd (SNTG2, Q9NY99; [2]): below the threshold

B4: TJP2, Q9UDY2 (peptide)
chain: QSARYRDTEL
pKd (APBA1_2, Q02410; [1]): below the threshold
pKd (GRIP2_7, Q9C0E4; [1]): 3.49
pKd (ARHGAP21, Q5T5U3; [1]): 4.48
pKd (IL16_1, Q14005; [1]): below the threshold
pKd (TIAM2, Q8IVF5; [1]): below the threshold
pKd (SCRIB_2, Q14160; [1]): 3.9
pKd (DLG5_1, Q8TDM6; [1]): below the threshold
pKd (SNTA1, Q13424; [1]): 4.38
pKd (NHERF3_4, Q5T2W1; [1]): 3.81
pKd (LNX2_2, Q8N448; [1]): below the threshold
pKd (GORASP2, Q9H8Y8; [1]): below the threshold
pKd (TJP1_3, Q07157; [1]): below the threshold
pKd (SCRIB_1, Q14160; [1]): 4.46
pKd (LDB3, O75112; [1]): below the threshold
pKd (RADIL, Q96JH8; [1]): below the threshold
pKd (DLG4_3, P78352; [1]): below the threshold
pKd (IL16_3, Q14005; [1]): below the threshold
pKd (MAST2, Q6P0Q8; [1]): 5.7
pKd (DFNB31_1, Q9P202; [1]): 3.57
pKd (GRIP2_5, Q9C0E4; [1]): below the threshold
pKd (APBA2_1, Q99767; [1]): below the threshold
pKd (DFNB31_3, Q9P202; [1]): below the threshold
pKd (GRIP1_7, Q9Y3R0; [1]): 3.82
pKd (MPP2, Q14168; [1]): below the threshold
pKd (SNTG2, Q9NY99; [1]): 3.84
